Data as given in the nanobody polyreactivity screen of Harvey et al. (2022).

Experiment: yeast display, Sf9 membrane polyspecificity reagent, FACS + sequencing; frameworks hold sequencing errors
Outline: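 Galactose induction of a Saccharomyces cerevisiae BJ5465 synthetic nanobody display library ran 36–48 hours. The cells were then stained for 1 hour at 4 °C with 10% biotinylated, detergent-solubilized Sf9 membrane reagent, pulled down on streptavidin microbeads and FACS-sorted into low and high (top ~1%) gates on expression and reagent-binding fluorescence. Labels for polyreactivity follow the gate of origin.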

## QVQLVESGGGLVQAGGSLRLSCAASGSTFVNYAMGWYRQAPGKERELVAAITRGGRTYYADSVKGRFTISRDNAKNTVYLQMNSLKPEDTAVYYCAARRSYNPAFGYWGQGTQVTVSS
  polyreactivity (PSR sort gate): high polyreactivity

## QVQLVESGGGLVQAGGSLRLSCAASGRIFRDNAMGWYRQAPGKERELVAAISRRGGSTYYADSVKGRFTISRDNAKNTVYLQMNSLKPEDTAVYYCNKTTQSRTFRYDYWGQGTQVTVSS
  polyreactivity (PSR sort gate): low polyreactivity

## QVQLVESGGGLVQAGGSLRLSCAASGFTFRWYAMGWYRQAPGKERELVARISWDGGSTYYADSVKGRFTISRDNAKNTVYLQMNSLKPEDTAVYDCAKDWYYLRRNYDYWGQGTQVTVSS
  polyreactivity (PSR sort gate): high polyreactivity

## QVQLVESGGGLVQAGGSLRLICAPSGSTNRYYAIGWSRQAPRKEMELVAPISWRGGSTYYADSVKGRFRISRDNANNTVYLEMNSLKPEDTAVYYCNAAYSYAVRDPIDYGYWGQGTQVTVSS
  polyreactivity (PSR sort gate): high polyreactivity

## QVQLVESGGGLVQAGGSLRLSCAASGYTLGSYAMGWYRQAPGKERELVATITWGGGSTDYADSVKGRFTISRDNAKNTVYLQMNSLKPEDTAVYYCAAEDDSYDVEGSLYYWGQGTQVTVSS
  polyreactivity (PSR sort gate): low polyreactivity

## QVQLVESGGGIVQAGGSLRLSCAASGFTYARYAKGWYRQAPGKERELVAAITRRGGSTHYADSVKGRFTISRDNAKNTVYLQMTSLKPEDTAVDYCAAYSLHNYLSEYGDWGQGTQVTVSS
  polyreactivity (PSR sort gate): high polyreactivity

## QVQLVESGGGLVQAGGSLRLSCAASGSTFARNVMGWYRQAPGKERELVAAISWRGGRTYYADSVKGRFTISRDNAKNTVYLQMNSLKPEDTAVYYCAAGRSFRGSYWYEYWGQGTKVTVSS
  polyreactivity (PSR sort gate): high polyreactivity

## QVQLVESGGGLVQAGGSLRLSCAASGSTFPRYAMGWYRQAPGKARELVAAINSSGSSTYYADSVKGRFTISRDNAKNTVYLQMNSLKPEDTAVYYCAAKARYRDYYYWGQGTQVTVSS
  polyreactivity (PSR sort gate): high polyreactivity

## QVQLVESGGCLVQAGGSLRLSCAASGGTFSRNAMGWYRQAPGKERELVAAINSSGVSTSYAYSVKGRFTISRDNEKNTVYLQMNSLKPEDTAFYYCAAETSSAEVDYWGQGTQVTVSS
  polyreactivity (PSR sort gate): low polyreactivity

## QVQLVESGGGLVQAGGSLRISCAASGSIFYNYAMGWYRQAPGKERELVAAINRSGGITFYADSVKGRFTISRDNAKNTVYLQMNSLKPEDTAVYYCAADRSFGHHYWYTGKRYDYWGQGTQVTVSS
  polyreactivity (PSR sort gate): low polyreactivity

## QVQLVESGGGLVQAGGSLRLSCAASGSTFVDYAMGWYRQAPGKERELVAAISFSDGSTYYADSVKGRFTISRDNAKNTVYLQMNSLKPEDTAVYYCAKDAYWGYRWYTYDYWGQGTQVTVSS
  polyreactivity (PSR sort gate): low polyreactivity

## QVQLVESGGGLVQAGGSLRLSCAASGIIFGGYAMGWYRQAPGKERELVASISYSGGSTYYADSVKGRFTISRDNAKNTVYLQMNSLKPEDTAVYYCAAGYPRTPAAGYYWGQGTQVTVSS
  polyreactivity (PSR sort gate): high polyreactivity

## QVQLVESGGGLVQAGGSLRLSCAASGSTFGGYAMGWYRQAPGKERELVAAINSGGSTYYADSVKGRFTISRDNAKNTVYLQMNSLKPEDTSVYYCNADSQVLRDYISDYWGQGTQVTVSS
  polyreactivity (PSR sort gate): low polyreactivity

## QVQLEESGGGLVQAGGSLRLSCAASGFTFSPNAMGWYRQAPGKVRELVAAIDWIGGSTYYADSVKWRFTISRDNAKNTVYLQMKSLNTEDTAVYLCTADWVYWHYLTYLVTFDYWGQGTQVTVSS
  polyreactivity (PSR sort gate): low polyreactivity

## QVQLVESGGGLVQAGGSLRLSCAASGITFVGNAMGWSRQAPGKERELVAAMSSSGASTYYADSVKGRFTISRDYAKNTVYLQMNSLKPEDTAVYYCNAGWGVVIRRYPTYDYWGQGTQVTVSS
  polyreactivity (PSR sort gate): high polyreactivity

## QVQLVESGGGLVQAGGSLRLSCAASGRILKYYDMGWYRQAPGKERELVAAISVSGTSTYYADSVKGRFTISRDNAMNTVYLQMNSLKPEVTAVYYCATATGRYSFDYWGQGTQVTVSS
  polyreactivity (PSR sort gate): low polyreactivity

## QVQLVESGGGLVQAGGSLRLSCAASGYIFTYNAMGWYRQAPGKERELVAAISYSGGSTYYADSVKGRFTISRDNAKNTVYLQINSLNPEDTAVYYCNAVWRHTYGNYFWGQGTQVTVSS
  polyreactivity (PSR sort gate): high polyreactivity

## QVQIVESGGGLFQAGGRLPLSCAASGSSFKINDMGWYRHAPGKERELVATITWSTGTTYYADSVKGLFTISRYNAKNTVYLKMNSLKPEYTAVYYCAADYCSYGYVLFDYWGQGTQVTVSS
  polyreactivity (PSR sort gate): low polyreactivity

## QVQLVESGGGLVQAGGSLRLSCAASGRIFKRYDMGWYRQAPGKERELVAAITGTGGSTYYADSVKGRFTISRDNAKNTVYLQMNSLKPEDTAVYYCAARLYNTYSGFAFGYWGQGTQVTVSS
  polyreactivity (PSR sort gate): high polyreactivity

## QVQLEESGGGLVQAGGSLRLSCAASGITFDDYTMGWYRQAPGKERELVAAITRSGGSTYYADSVKGRFTISRDTAKITVSLQMNSLKPEDTAVYYCSRVKGRGFKNGYWGQGTKVTVSS
  polyreactivity (PSR sort gate): high polyreactivity

## QVQLVESGGGLVQAGGSLRLTCAASGIIFGKYTMGWYRPAPGKERELVADISKRGGSTYYADSVKGRFTISRDHAKNTVYLQMNSLKPEDTAVYNCAAERISSYDYWGQGTQVTVSS
  polyreactivity (PSR sort gate): high polyreactivity

## QVQLVESGGGLVQAGGSLRLSCAASGNTFWYNAMGWYRQSPGKERELVAAISYSGGGTYYADSVKGRFTISRDNAKNTVYLQMNSLKPEDTAVYYCAADTLQRAFVLNDYWGQGTQVTVSS
  polyreactivity (PSR sort gate): low polyreactivity

## QVQLVESGGGLVQAGGSLRLSCAASGYTFWRYAMGWYRQAPGKERELVAAISASGGSTYYADSVKGRFTISRDNAKNTVYLQMNSLKPEDTAVYYCNAVSAYSYYVNYDYWGQGTQVTVSS
  polyreactivity (PSR sort gate): high polyreactivity

## QVQLVETGGGLVQAGGSLRLSCAASGRTFAYYVMGWYRQAPGKERELVAAISSDGSTYYADSVKGRFTISRDNAKNTVNLQMNSLKPEDTAVYYCKVDVLLVHDYVFYSWMDYWGQGTQVTVSS
  polyreactivity (PSR sort gate): high polyreactivity

## QVQLVESGGGLVQAGGSLRLSCAASGFIFFINDMGWYRQAPGKERELVAAISWSGGSTYYADSVKGRFTISRDNAKNTVYLQMNSLKPEDTAVYYCAADWLIYDLSRFDYWGQGTQVTVSS
  polyreactivity (PSR sort gate): low polyreactivity

## QVQLVESGGGLVQAGGSLRLSCAASGRTFRAYAMGWYRQAPGKETELVASISRRGGSTYYADSVKGRFTISRDNAKNTVYLQMNSLKPEDSAVYYCAASDNYLQYDYWGQGTQVTVSS
  polyreactivity (PSR sort gate): high polyreactivity

## QVQLVESGGGLVQAGGSLRLSCAASGSIFSTNALGWYRQAPGKERELVAGITRSGGRTYYADSVKGRFTISRDTAKNTVYLQMNSLKPEDTAVYYCTAVRPHRYYSWGQGSQVTVSS
  polyreactivity (PSR sort gate): high polyreactivity

## QVQLVESGGGLVQAGGSLRLSSAASGLNFYWYAMGWSRQAPGKERELVAAISTAGSTNYADSVKGRFTISRDNAKNTVYLQMISLKPEDTAVYYCNARIAYRYSNYGYWGQGTQVTVSS
  polyreactivity (PSR sort gate): low polyreactivity

## QVQLVESGGGLVQAGGSLRLSCAASGSIFLSNAMGWYRQAPGKERELVASISGSGSTNYADSVKGRFTISRDNAKNTVYLQMNSLKPEDTAVYYCAAYQRYDSVTGARYEYDYWGQGTQVTVSS
  polyreactivity (PSR sort gate): low polyreactivity

## QVQLLESGGGLVQAGVSHRLSCASSGFIFTYYAMGWYRQAPGKESELVASISTYGGNTNYADSVKGRFTISRDNAKNTVYIQMNSLIPEDTAVYYCAARIGNQYHTGYPTAGRKYGYWGQGTQVSVSS
  polyreactivity (PSR sort gate): high polyreactivity

## QVQLVESGGGLVQAGGSLRLSCADSGNILGYNAMGSYRQAPGKATELVAAISDNADSTYYADSVKGRFTISRDNAKNTVYLQMKSLKPEDTAVYYGAADWVHRTWLFWYTKYDYWGQGTQVTVSS
  polyreactivity (PSR sort gate): low polyreactivity

## QVQLVESGGGLVQAGGSLRLSCAASGIIFIVNSMGWYRQAPGKERELVADISENGGDTYYADSVKGRFTISRDNAKNTVYLQMNSLKPEDSAVYYCAKSGEPYTRFDYWGQGTQVTVSS
  polyreactivity (PSR sort gate): low polyreactivity

## QVQLVESGGGLVQAGGSLRLSCAAYGSTFGWYTMGWYRQAPGKERELVATISYGGGITNYADSVKGRFTISRDNAKITVYLQMNSLKPEDTADYDCAVDNTGRSWPYDYWGQGTQVTVSS
  polyreactivity (PSR sort gate): low polyreactivity

## QVQLVESGGGLVQAGGSLRLSCAASGSTFYVYAMGWYRQAPGNERELVAAITSGGSTNYADSVKGRFTISRDNAKNTVYLQMNSLKPEDTAVYYCAAQGRVWDSYGYEYVQEVTRDYWGQGTQVTVSS
  polyreactivity (PSR sort gate): low polyreactivity

## QVQLEESVGGLVQAGGSLRLICAASGSIFSSYAMGWYRQAPGKERELVATISKRGGITSYADSVKGRFTISRDNAKNTVYLQMNSLKPEDTAVYYCAADSWFSYRGPLYYWGQGTQVTVSS
  polyreactivity (PSR sort gate): high polyreactivity

## QVQLVESGGGLVQAGGSLRLSCAASGSTFGTYAMGWYRQAPGKERELVAAISYRGGSTYYADSVKGRFTISRDNAKNTVYLQMNSLKPEDTAVYYCATRKYAATGYDYWGQGTQVTVSS
  polyreactivity (PSR sort gate): high polyreactivity

## QVQHVESGGGLVQAGGSLRLSCAASGRTFWINAMGWYRQARGKERELVAAITRGGRTYADSVKGRFTISRDNAKNSVYLQMNSLKPEDTAVYFCAADSYRLSGHHGYDFWGQGTQLTVSS
  polyreactivity (PSR sort gate): high polyreactivity

## QVQLVETGGGLVQAGGSLRLSCAASGGSFTYNALGWDRQSPGKERALVAAITDSGGSTFADSVKGRFTISRDIAKNNVYLQMNSLKPEDTAVYYCAAGDGDTGSMYLRKLSDYWGQGTQVTVSS
  polyreactivity (PSR sort gate): low polyreactivity

## QVQLVESGGGLVQAGGSLRLSCAASGSTFVYYAMGWYRQAPGKERELVAAITASGGRTYYADSVKGRFTISRDNAKNTVYLQMNSLKPEDTAVYYCNTVRPHGMDYWGQGTQVTVSS
  polyreactivity (PSR sort gate): high polyreactivity

## QVQLVESGGGLVQAGGSLRLSCAASGCTFQTYAMGWYRQAPGKERELVAGITAGGSTNYADSVKGRFSISRDNAKNTVYLQMNSLKPEDTAVYYCAVRQISQTSDHRLQYDYWGQGTQVNVSS
  polyreactivity (PSR sort gate): low polyreactivity

## QVQLVESGGGLVQAGGSLRLSCAASGITFIINAMGWYRQAPGKERELVAAISWRGGNTHYADSVKGRFTISRDYAKNTVYLQLNSLKAEVTAVYYCAARVTSRRDPDQKHGYWGQGTQVTVSS
  polyreactivity (PSR sort gate): high polyreactivity

## QVQLVETGGGLVQAGGSLRLSCAASGNTFQRYTMGWYRQAPGNERELVAAITWSGGNTYYADSVKGRFTISRDNAKNTVYLQMNSLKPVDTAVYYCNADYPTTAYDYWGQGTQVSVSS
  polyreactivity (PSR sort gate): low polyreactivity

## QVQLVESGGGLVQAGGSLRLSCAASGLTFWAYTMGWYRQAPGKERELVAAITSSGGRTYYADSVKGRFTISRDNAKNTVYLQMNSLKPEDTAVYYCAALGGRYRASTYGYWGQGTQVTVSS
  polyreactivity (PSR sort gate): high polyreactivity
